The labels stand for the following.
B1: WT G-CSFR(Ig-CRH), purified, tag cleaved (receptor)
chain: GSMGCGHISVSAPIVHLGDPITASCIIKQNCSHLDPEPQILWRLGAELQPGGRQQRLSDGTQESIITLPHLNHTQAFLSCSLNWGNSLQILDQVELRAGYPPAIPHNLSCLMNLTTSSLICQWEPGPETHLPTSFTLKSFKSRGNCQTQGDSILDCVPKDGQSHCSIPRKHLLLYQNMGIWVQAENALGTSMSPQLCLDPMDVVKLEPPMLRTMDPSPEAAPPQAGCLQLSWEPWQPGLHINQKCELRHKPQRGEASWALVGPLPLEALQYELCGLLPATAYTLQIRCIRWPLPGHWSDWSPSLELRTTE
notes: also called G-CSFRWT; wild type G-CSFR(Ig-CRH)
B2: design 401 G-CSFE, tag cleaved (ligand)
chain: TPLGPASSLPQSFLLKCLKQVRKIQGDGAALQEKLCATYKLCHPERLVLLGHSLGIPWAPLSSCPSQALQLAGCLSQLHSGLFLYQGLLQALEGISPELGPTLDTLQKDVARFATTIWQQMEELGMAPALQPTQGAMPAFASAFQRRAGGVLVASHLQSFLEVSYRVLRHLAQAAAENLYFQ
B3: design 402 G-CSFE, tag cleaved (ligand)
chain: B2 chain with K108L, R112K, T115K

Numbering of substitutions follows the chain as printed.

Assay [1] concerns the target T1, WT G-CSF, purified from insect cells, tag cleaved (human, UniProt P09919 31-206).
T1 construct: protein of the SPR; also called G-CSFWT; wild type G-CSF
T1 sequence: B2 chain with K19E, R46E, K108L, R112D
Description: SPR (Biacore T200, 25 °C), single-cycle kinetics, 1:1 Langmuir fit; lower end of the range found for the WT:WT pair. The procedure:
(§1) To assess binding affinity of G-CSFE to G-CSFRWT, recombinant G-CSFRWT purified as described in Example 5 was captured as described above in this Example. Using single-cycle kinetics, six concentrations of a two-fold dilution series of each G-CSFE mutant starting at […] with a blank buffer control were sequentially injected as described above. The same sample titration was also performed on a reference cell with no variants captured. The G-CSFRWT surface was regenerated as described above.
(§2) Double-referenced sensorgrams from duplicate or triplicate repeat injections were analyzed using Biacore™ T200 Evaluation Software v3.0 and fit to the 1:1 Langmuir binding model.
(§3) Kinetic-derived affinity constants (KD) where obtained by fitting the association and dissociation phases of the curves. The KD of WT G-CSF for WT G-CSFR(Ig-CRH) ranged between 1.8-2.5E-9. For the cases in which the kinetic parameters could not be fit an attempt was made to derive a steady state affinity constant. In those cases, the KD fold change was calculated from the steady state derived KD for the WT G-CSF:WT G-CSFR(Ig-CRH) pair and is indicated in Table 7.

The target of assay [2] is B1. Description: SPR, single-cycle kinetics, G-CSFR(Ig-CRH) on the chip, G-CSF injected. The procedure: The SPR binding assays were carried out on a Biacore T200 instrument (GE Healthcare, Mississauga, ON, Canada) with PBS-T (PBS+0.05% (v/v) Tween 20) running buffer at a temperature of 25° C. CM5 Series S sensor chip, Biacore amine coupling kit (NHS, EDC and 1 M ethanolamine), and 10 mM sodium acetate buffers were all purchased from GE Healthcare. PBS running buffer with 0.05% Tween20 (PBS-T) was purchased from Teknova Inc. (Hollister, CA). Designs were assessed in three different immobilization orientations.
as §1, §2

Assay [3] deals with T2, design 401 G-CSFR(Ig-CRH)E, tag cleaved (human, UniProt Q99062 26-331).
T2 chain: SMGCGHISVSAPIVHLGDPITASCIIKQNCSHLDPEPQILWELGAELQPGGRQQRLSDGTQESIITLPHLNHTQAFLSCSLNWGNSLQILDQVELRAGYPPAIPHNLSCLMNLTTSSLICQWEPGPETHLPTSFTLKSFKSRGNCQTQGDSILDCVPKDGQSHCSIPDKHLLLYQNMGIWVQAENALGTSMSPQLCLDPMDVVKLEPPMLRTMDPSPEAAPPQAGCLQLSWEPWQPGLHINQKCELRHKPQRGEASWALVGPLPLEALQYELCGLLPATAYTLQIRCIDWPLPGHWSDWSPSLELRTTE
Description: SPR, G-CSFRE amine-coupled, G-CSFE injected; steady state derived affinity constant. The procedure:
(§4) To determine binding affinity of G-CSFE to G-CSFRE the G-CSFRE mutant was captured by standard amine coupling as described by the manufacturer (GE LifeSciences). Briefly, immediately after EDC/NHS activation, a 5 μg/mL solution of G-CSFRE in 10 mM NaOAc, pH 5.0, was injected at a flow rate of 5 μL/min until a receptor density of ˜700-900 RU was reached. The remaining active groups were quenched by a 420 s injection of 1 M ethanolamine hydrochloride-NaOH pH 8.5 at 10 μL/min. Using single-cycle kinetics, six concentrations of a two-fold dilution series of the corresponding G-CSFE mutant starting at 200 nM with a blank buffer control were sequentially injected at 25 μL/min for 300 s with a 1800 s dissociation phase, resulting in a set of sensorgrams with a buffer blank reference. The same sample titration was also performed on a reference cell with no variants captured. The chip was regenerated to prepare for the next injection cycle by one pulse of 10 mM glycine/HCl, pH 2.0, for 30 s at 30 μL/min.
as §2, §3

In assay [4] the target is T3, design 402 G-CSFR(Ig-CRH)E, tag cleaved (human, UniProt Q99062 26-331).
T3 chain: T2 chain with D168E, Q175E, D289E
Described as above. As to the method: as §4, §2, §3

As to B1, the Kd in assay [1] was 1.8 to 2.5 nM. Regarding B2, the binding result in assay [2] is “no binding”. Moreover, the “KD fold change (against WT:WT)” value in assay [3] turned out to be 0.6 fold. For B3, in assay [2], the binding result is recorded as “no binding”. Moreover, the “KD fold change (against WT:WT)” value in assay [4] worked out at 0.8 fold.
